# Experimental data from US20260152527A1 (SIGHTSTREAM BIOTHERAPEUTICS, published 2026).
# Starred links: 1 amine or outer side, 2 acyl side, 3 side chain; linkers in the order of their positions; H or OH if unused. Positions of bridges follow the written chain, without caps; N, C: chain ends. Non-standard residues stand in square brackets, D forms with d. Primed or numbered codes have the meaning given here. *: point of attachment. Hgln = homoglutamine, NC(=O)CCC[C@H](N[*:1])C(=O)[*:2]; Benzoyl(3,5-(OH)2) = O=C(c1cc(O)cc(O)c1)*; Lys(N3) = [N-]=[N+]=NCCCC[C@H](N)C(=O)O; dPhe(4-F) = N[C@H](Cc1ccc(F)cc1)C(=O)O; Acetyl(4-pyridyl) = O=C(Cc1ccncc1)*; R8 = C=CCCCCCC[C@@](C)(N)C(=O)O; PEG8′ = polyethylene glycol-8; S5 = C=CCCC[C@](C)(N)C(=O)O; dPra = C#CC[C@@H](N)C(=O)O; Nle = CCCC[C@H](N)C(=O)O; Octanoyl = CCCCCCCC(=O)*; Pra = C#CC[C@H](N)C(=O)O
# B1: KR-049 (peptide)
# peptide: Ac-[Nle][Lys(N3)]H[dPhe(4-F)]RW[Pra]-NH2
# modifications: triazole 2-7
# B2: KR-073 (peptide)
# peptide: {Benzoyl(3,5-(OH)2)}-[Nle][Lys(N3)]H[dF]RW[Pra]-NH2
# modifications: triazole 2-7; not fully specified; printed as HyBA-Nle-[Lys(N3)-His-DPhe-Arg-Trp-Pra]-NH2
# B3: KR-071 (peptide)
# peptide: {Benzoyl(3,5-(OH)2)}-[Nle][Lys(N3)]H[dPhe(4-F)]RW[Pra][Hgln]-NH2
# modifications: triazole 2-7; not fully specified; printed as HyBA-Nle-[Lys(N3)-His-Dphe(4-F)-Arg-Trp-Pra]-Hgln-NH2
# B4: KR-072 (peptide)
# peptide: {Benzoyl(3,5-(OH)2)}-[Nle][Lys(N3)]H[dPhe(4-F)]RW[Pra]-NH2
# modifications: triazole 2-7; not fully specified; printed as HyBA-Nle-[Lys(N3)-His-Dphe(4-F)-Arg-Trp-Pra]-NH2
# B5: KR-009 (peptide)
# peptide: Ac-[Nle][Lys(N3)]H[dF]RW[Pra]-NH2
# modifications: bridge 2-7; not fully specified (bridges); printed as Ac-Nle-[Lys(N3)-His-DPhe-Arg-Trp-Pra]-NH2
# B6: KR-010 (peptide)
# peptide: Ac-[Lys(N3)]EHFRWG[Pra]-NH2
# modifications: triazole 1-8
# B7: KR-007 (peptide)
# peptide: Ac-EHFRWGKP-NH2
# B8: KR-002 (peptide)
# peptide: Ac-SMEHFRWGKPV-NH2
# B9: KR-008 (peptide)
# peptide: Ac-[Nle][Lys(N3)]HFRW[Pra]-NH2
# modifications: triazole 2-7
# B10: KR-017 (peptide)
# peptide: {Octanoyl-PEG8′}-GGSYSMEHFRWGKPV-NH2
# B11: KR-070 (peptide)
# peptide: Ac-[Nle][Lys(N3)]H[dF]RW[dPra]K-NH2
# modifications: triazole 2-7; not fully specified; printed as Ac-Nle-[Lys(N3)-His-DPhe-Arg-Trp-DPra]-Lys-NH2
# B12: KR-074 (peptide)
# peptide: {Acetyl(4-pyridyl)}-[Nle][Lys(N3)]H[dF]RW[Pra]-NH2
# modifications: triazole 2-7; not fully specified; printed as PyAA-Nle-[Lys(N3)-His-DPhe-Arg-Trp-Pra]-NH2
# B13: KR-015 (peptide)
# peptide: Ac-[R8]EHFRWG[S5]-NH2
# modifications: staple 1-8
# SMILES: CC(=O)N[C@]1(C)CCCCCCC=CCCC[C@@](C)(C(N)=O)NC(=O)CNC(=O)[C@H](Cc2c[nH]c3ccccc23)NC(=O)[C@H](CCCNC(=N)N)NC(=O)[C@H](Cc2ccccc2)NC(=O)[C@H](Cc2c[nH]cn2)NC(=O)[C@H](CCC(=O)O)NC1=O
# Target: T1, human recombinant MC1R (CHO-K1 stable cell line, GenScript) (human, UniProt Q01726 1-317)
# T1 sequence (Q01726 whole entry): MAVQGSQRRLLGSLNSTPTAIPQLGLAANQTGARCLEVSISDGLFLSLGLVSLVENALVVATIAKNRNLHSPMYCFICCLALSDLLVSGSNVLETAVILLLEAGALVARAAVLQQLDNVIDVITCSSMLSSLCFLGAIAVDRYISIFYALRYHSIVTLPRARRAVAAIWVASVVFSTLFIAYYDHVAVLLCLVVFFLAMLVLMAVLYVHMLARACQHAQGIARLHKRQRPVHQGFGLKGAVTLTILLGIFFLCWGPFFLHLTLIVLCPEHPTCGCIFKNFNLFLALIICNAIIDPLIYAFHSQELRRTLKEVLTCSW
# Assay: cell-based or functional assay
row,EC50(nM)-MC1R [nM],Binder
1,0.019,B1
2,0.0041,B2
3,0.0023,B3
4,0.0019,B4
5,0.011,B5

# Target: T2, human recombinant MC4R (CHO-K1/Gα15 stable cell line, GenScript) (human, UniProt P32245 1-332)
# T2 sequence (P32245 whole entry): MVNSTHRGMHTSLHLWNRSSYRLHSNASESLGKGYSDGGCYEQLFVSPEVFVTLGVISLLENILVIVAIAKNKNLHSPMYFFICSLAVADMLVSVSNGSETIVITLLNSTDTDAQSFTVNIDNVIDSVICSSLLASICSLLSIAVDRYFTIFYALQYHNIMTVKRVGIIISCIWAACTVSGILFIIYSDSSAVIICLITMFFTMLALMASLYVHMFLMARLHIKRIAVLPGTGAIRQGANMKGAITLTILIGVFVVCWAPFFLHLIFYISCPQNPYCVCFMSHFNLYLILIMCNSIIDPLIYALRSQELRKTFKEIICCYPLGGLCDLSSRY
# Assay: cell-based or functional assay
row,EC50(nM)-MC4R [nM],Binder
1,16.1,B1
2,13.9,B2
3,103,B3
4,98.6,B4
5,45.7,B5

# Target: T3, human recombinant MC5R (CHO-K1/Ga15 stable cell line, GenScript) (human, UniProt P33032 1-325)
# T3 sequence (P33032 whole entry): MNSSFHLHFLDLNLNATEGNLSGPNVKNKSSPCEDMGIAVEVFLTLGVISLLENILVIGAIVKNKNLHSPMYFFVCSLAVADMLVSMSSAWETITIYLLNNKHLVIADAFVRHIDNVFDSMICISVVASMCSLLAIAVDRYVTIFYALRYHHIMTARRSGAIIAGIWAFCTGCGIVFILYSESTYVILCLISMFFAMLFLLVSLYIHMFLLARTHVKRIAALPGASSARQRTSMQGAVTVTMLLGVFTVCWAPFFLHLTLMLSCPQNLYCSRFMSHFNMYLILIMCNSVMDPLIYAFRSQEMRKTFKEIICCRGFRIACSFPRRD
# Assay: cell-based or functional assay
row,EC50(nM)-MC5R [nM],Binder
1,25.2,B1
2,134,B2
3,73.9,B3
4,78,B4
5,140,B5

# Target: T1, human recombinant MC1R (CHO-K1 stable …)
# Assay: cell-based or functional assay
# Remark: another data set of the same source
row,MC1R IC50 [nM],Binder
1,170,B6
2,1.99,B7
3,0.44,B8
4,0.4,B9
5,0.019,B1
6,0.77,B10
7,0.0041,B2
8,0.0023,B3
9,11.8,B11
10,0.0019,B4
11,0.023,B12
12,25.8,B13
13,0.0109,B5

# Target: T2, human recombinant MC4R (CHO-K1/Gα15 …)
# Assay: cell-based or functional assay
# Remark: another data set of the same source
row,MC4R IC50 [nM],Binder
1,452,B6
2,16.4,B7
3,34.9,B8
4,74.5,B9
5,16.1,B1
6,139,B10
7,13.9,B2
8,103,B3
9,84.1,B11
10,98.6,B4
11,20.2,B12
12,485,B13
13,45.7,B5

# Target: T3, human recombinant MC5R (CHO-K1/Ga15 …)
# Assay: cell-based or functional assay
# Remark: another data set of the same source
row,MC5R IC50 [nM],Binder
1,> 10000,B6
2,> 10000,B7
3,243,B8
4,> 10000,B9
5,25.2,B1
6,210,B10
7,134,B2
8,73.9,B3
9,376,B11
10,78,B4
11,154,B12
12,> 10000,B13
13,140,B5

# Target: human recombinant MC3R (CHO-K1/Gα15 stable cell line, GenScript) (human, UniProt P41968 1-323)
# Sequence (P41968 whole entry): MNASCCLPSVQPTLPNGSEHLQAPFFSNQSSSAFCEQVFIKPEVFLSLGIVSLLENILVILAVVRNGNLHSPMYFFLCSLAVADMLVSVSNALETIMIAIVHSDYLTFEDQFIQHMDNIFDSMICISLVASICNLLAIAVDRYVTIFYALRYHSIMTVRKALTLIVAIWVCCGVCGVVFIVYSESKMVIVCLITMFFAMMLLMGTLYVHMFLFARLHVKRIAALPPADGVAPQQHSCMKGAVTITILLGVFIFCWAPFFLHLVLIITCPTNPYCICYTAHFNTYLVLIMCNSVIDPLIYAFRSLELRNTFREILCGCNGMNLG
# Assay: cell-based or functional assay
row,MC3R IC50 [nM],Binder
1,13600,B6
2,1400,B7
3,176,B8
4,1110,B9
5,310,B10
6,1630,B11
7,165,B12
8,3000,B13
